Measured values as given in patent US20220048967A1 (published 2022).
Numbered stars: 1 amine (or outer) side, 2 acyl side, 3 side chain; on linkers, the order of the positions; unused ones are H or OH. Square brackets hold non-standard residues; d marks the D form. Side chains are listed from the residue outwards. Ends that are not written are not given here. * marks the point of attachment. C20 diacid = O=C(O)CCCCCCCCCCCCCCCCCCC(=O)*; γGlu = O=C(O)[C@H](CCC(=O)[*:2])N[*:1]; αMeL = CC(C)C[C@](C)(N)C(=O)O; Dab = NCC[C@H](N)C(=O)O; Dap = NC[C@H](N)C(=O)O; AEEA = NCCOCCOCC(=O)O; Aib = CC(C)(N)C(=O)O

T1: human gastric inhibitory peptide receptor (GIPR) (human, UniProt P48546 22-466)
T1 sequence (looked up): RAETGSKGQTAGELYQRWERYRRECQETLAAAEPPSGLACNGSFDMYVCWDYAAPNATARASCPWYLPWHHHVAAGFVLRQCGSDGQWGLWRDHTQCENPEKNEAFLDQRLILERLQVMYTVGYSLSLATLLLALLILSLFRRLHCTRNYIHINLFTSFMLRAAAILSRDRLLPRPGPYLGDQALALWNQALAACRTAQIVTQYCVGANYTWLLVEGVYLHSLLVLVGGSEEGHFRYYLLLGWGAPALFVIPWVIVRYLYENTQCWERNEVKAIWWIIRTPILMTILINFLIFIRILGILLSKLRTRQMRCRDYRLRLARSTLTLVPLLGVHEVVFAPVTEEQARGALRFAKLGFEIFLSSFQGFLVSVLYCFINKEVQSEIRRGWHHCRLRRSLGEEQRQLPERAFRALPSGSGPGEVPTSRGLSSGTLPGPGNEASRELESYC

T2: human GIP receptor (human, UniProt P48546 22-466)
T2 sequence (looked up): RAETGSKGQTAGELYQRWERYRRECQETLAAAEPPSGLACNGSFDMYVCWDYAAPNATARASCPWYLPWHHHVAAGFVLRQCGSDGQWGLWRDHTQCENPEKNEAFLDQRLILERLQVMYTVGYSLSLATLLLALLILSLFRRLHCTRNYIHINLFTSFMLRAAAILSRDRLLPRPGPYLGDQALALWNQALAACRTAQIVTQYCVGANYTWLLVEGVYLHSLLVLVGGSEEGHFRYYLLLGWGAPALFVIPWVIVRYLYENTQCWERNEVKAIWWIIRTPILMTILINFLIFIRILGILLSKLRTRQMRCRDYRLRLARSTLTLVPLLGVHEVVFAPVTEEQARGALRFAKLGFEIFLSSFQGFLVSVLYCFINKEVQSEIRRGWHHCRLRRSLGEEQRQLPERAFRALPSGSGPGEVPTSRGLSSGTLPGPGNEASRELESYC


What was measured:
Test in all cases: cell-based or functional assay
[1] = molecular target: human GLP-1 receptor (human, UniProt P43220 24-463)
[2] = molecular target: T1, human gastric inhibitory peptide …
[3] = molecular target: human GLP-1 receptor (GLP-1R) (human, UniProt P43220 24-463)
[4] = molecular target: T2, human GIP receptor

Binder | hGLP1R cAMP Rel EC50 [1] | hGIPR cAMP EC50 ratio [2] | hGIPR cAMP Rel EC50 [2] | hGLP1R cAMP EC50 ratio [3] | hGLP1R cAMP Rel EC50 [3] | hGIPR cAMP Rel EC50 [4]
YXEGTFTSDYSILLDKKAQXAFIEYLIEGGPSSGAPPPS (αMePro2; K17((2-[2-(2-Amino-ethoxy)-ethoxy]-acetyl)2-(γ-Glu)-CO-(CH2)18-CO2H); Aib20; C-terminal NH2) [Example 87] | 0.0801 nM | – | – | – | – | –
YXEGTFTSDYSILLDKKAQXAFIEYLIEGGPSSGAPPPS (Aib2; K17((2-[2-(2-Amino-ethoxy)-ethoxy]-acetyl)-AOC-(γ-Glu)-CO-(CH2)18-CO2H); Aib20; C-terminal NH2) [Example 108] | 0.294 nM | – | – | – | – | –
YXEGTFTSDYSILLDKKAQXAFIEYLIEGGPSSGAPPPS (Aib2; K17((2-[2-(2-Amino-ethoxy)-ethoxy]-acetyl)-(ϵK)-(ϵK)-CO-(CH2)18-CO2H); Aib20; C-terminal NH2) [Example 114] | 0.267 nM | – | – | – | – | –
YXEGTFTSDYSILLDKKAQXAFIEYLIEGGPSSGAPPPS (Aib2; K17((2-[2-(2-Amino-ethoxy)-ethoxy]-acetyl)-(Trx)-(γ-Glu)-CO-(CH2)18-CO2H); Aib20; C-terminal NH2) [Example 111] | 0.308 nM | – | – | – | – | –
[dY][Aib]EGTFTSDYSI[αMeL]LD[Dab]K([AEEA-AEEA-γGlu-C20 diacid])AQ[Aib]EFIEYLIAGGPSSGAPPPS-NH2 (N-terminus assumed; SMILES CC[C@H](C)[C@H](NC(=O)[C@H](CC(C)C)NC(=O)[C@H](Cc1ccc(O)cc1)NC(=O)[C@H](CCC(=O)O)NC(=O)[C@@H](NC(=O)[C@H](Cc1ccccc1)NC(=O)[C@H](CCC(=O)O)NC(=O)C(C)(C)NC(=O)[C@H](CCC(N)=O)NC(=O)[C@H](C)NC(=O)[C@H](CCCCNC(=O)COCCOCCNC(=O)COCCOCCNC(=O)CC[C@H](NC(=O)CCCCCCCCCCCCCCCCCCC(=O)O)C(=O)O)NC(=O)[C@H](CCN)NC(=O)[C@H](CC(=O)O)NC(=O)[C@H](CC(C)C)NC(=O)[C@](C)(CC(C)C)NC(=O)[C@@H](NC(=O)[C@H](CO)NC(=O)[C@H](Cc1ccc(O)cc1)NC(=O)[C@H](CC(=O)O)NC(=O)[C@H](CO)NC(=O)[C@@H](NC(=O)[C@H](Cc1ccccc1)NC(=O)[C@@H](NC(=O)CNC(=O)[C@H](CCC(=O)O)NC(=O)C(C)(C)NC(=O)[C@H](N)Cc1ccc(O)cc1)[C@@H](C)O)[C@@H](C)O)[C@@H](C)CC)[C@@H](C)CC)C(=O)N[C@@H](C)C(=O)NCC(=O)NCC(=O)N1CCC[C@H]1C(=O)N[C@@H](CO)C(=O)N[C@@H](CO)C(=O)NCC(=O)N[C@@H](C)C(=O)N1CCC[C@H]1C(=O)N1CCC[C@H]1C(=O)N1CCC[C@H]1C(=O)N[C@@H](CO)C(N)=O) [Example 350] | – | 0.741 | 0.189 nM | 0.307 | 0.107 nM | –
[dY][Aib]EGTFTSDYSI[αMeL]LD[Dap]K([AEEA-AEEA-γGlu-C20 diacid])AQ[Aib]EFIEYLIAGGPSSGAPPPS-NH2 (N-terminus assumed; SMILES CC[C@H](C)[C@H](NC(=O)[C@H](CC(C)C)NC(=O)[C@H](Cc1ccc(O)cc1)NC(=O)[C@H](CCC(=O)O)NC(=O)[C@@H](NC(=O)[C@H](Cc1ccccc1)NC(=O)[C@H](CCC(=O)O)NC(=O)C(C)(C)NC(=O)[C@H](CCC(N)=O)NC(=O)[C@H](C)NC(=O)[C@H](CCCCNC(=O)COCCOCCNC(=O)COCCOCCNC(=O)CC[C@H](NC(=O)CCCCCCCCCCCCCCCCCCC(=O)O)C(=O)O)NC(=O)[C@H](CN)NC(=O)[C@H](CC(=O)O)NC(=O)[C@H](CC(C)C)NC(=O)[C@](C)(CC(C)C)NC(=O)[C@@H](NC(=O)[C@H](CO)NC(=O)[C@H](Cc1ccc(O)cc1)NC(=O)[C@H](CC(=O)O)NC(=O)[C@H](CO)NC(=O)[C@@H](NC(=O)[C@H](Cc1ccccc1)NC(=O)[C@@H](NC(=O)CNC(=O)[C@H](CCC(=O)O)NC(=O)C(C)(C)NC(=O)[C@H](N)Cc1ccc(O)cc1)[C@@H](C)O)[C@@H](C)O)[C@@H](C)CC)[C@@H](C)CC)C(=O)N[C@@H](C)C(=O)NCC(=O)NCC(=O)N1CCC[C@H]1C(=O)N[C@@H](CO)C(=O)N[C@@H](CO)C(=O)NCC(=O)N[C@@H](C)C(=O)N1CCC[C@H]1C(=O)N1CCC[C@H]1C(=O)N1CCC[C@H]1C(=O)N[C@@H](CO)C(N)=O) [Example 351] | – | 0.47 | 0.298 nM | 0.22 | 0.149 nM | –
XXEGTFTSDYSIXLDXKAQXEFIEYLIAGGPSSGAPPPS (D-Tyr1, Aib2, αMeL13, Orn16, (2-[2-(2-Amino-ethoxy)-ethoxy]-acetyl)2-(γ-Glu)-CO-(CH2)18-CO2H on K17, Aib20, C-terminal NH2) [Example 349] | – | 0.756 | 0.117 nM | 0.214 | 0.121 nM | –
XXEGTFTSDYSIXLDXKAQXEFIXYLIEGGPSSGAPPPS (D-Tyr1, Aib2, αMeL13, Orn16, (2-[2-(2-Amino-ethoxy)-ethoxy]-acetyl)2-(γ-Glu)-CO-(CH2)18-CO2H on K17, Aib20, D-Glu24, C-terminal NH2) [Example 355] | – | 0.111 | 0.685 nM | 0.0285 | 0.896 nM | –
XXEGTFTSDYSIXLDKKAQXAFIXYLIEGGPSSGAPPPS (D-Tyr1, Aib2, αMeL13, (2-[2-(2-Amino-ethoxy)-ethoxy]-acetyl)2-(γ-Glu)-CO-(CH2)18-CO2H on K17, Aib20, D-Glu24, C-terminal NH2) [Example 356] | – | 0.364 | 0.386 nM | 0.0647 | 0.506 nM | –
XXEGTFTSDYSIXLDKKAQXEFIXYLIEGGPSSGAPPPS (D-Tyr1, Aib2, αMeL13, (2-[2-(2-Amino-ethoxy)-ethoxy]-acetyl)2-(γ-Glu)-CO-(CH2)18-CO2H on K17, Aib20, D-Glu24, C-terminal NH2) [Example 353] | – | 0.145 | 0.497 nM | 0.0231 | 1.09 nM | –
XXEGTFTSDYSIXLDXKAQXEFIXYLIAGGPSSGAPPPS (D-Tyr1, Aib2, αMeL13, Orn16, (2-[2-(2-Amino-ethoxy)-ethoxy]-acetyl)2-(γ-Glu)-CO-(CH2)18-CO2H on K17, Aib20, D-Glu24, C-terminal NH2) [Example 354] | – | 0.441 | 0.233 nM | 0.0517 | 0.54 nM | –
XXEGTFTSDYSIXLDXKAQXAFVEYLIAGGPSSGAPPPS (D-Tyr1, Aib2, αMeL13, Orn16, (2-[2-(2-Amino-ethoxy)-ethoxy]-acetyl)2-(γ-Glu)-CO-(CH2)18-CO2H on K17, Aib20, C-terminal NH2) [Example 358] | – | 0.662 | 0.183 nM | 0.26 | 0.117 nM | –
XXEGTFTSDYSIXLDXKAQXAFIXYLIEGGPSSGAPPPS (D-Tyr1, Aib2, αMeL13, Orn16, (2-[2-(2-Amino-ethoxy)-ethoxy]-acetyl)2-(γ-Glu)-CO-(CH2)18-CO2H on K17, Aib20, D-Glu24, C-terminal NH2) [Example 357] | – | 0.366 | 0.384 nM | 0.181 | 0.181 nM | –
YXEGTXTSDYSIXLDXKAQXEFIXYLIEGGPSSGAPPPS (Aib2; αMeF(2F)6; αMeL13; Orn16; K17((2-[2-(2-Amino-ethoxy)-ethoxy]-acetyl)2-(γ-Glu)-CO-(CH2)18-CO2H); Aib20; D-Glu24; C-terminal NH2) [Example 3] | – | – | – | – | – | 0.0411 nM
XXEGTFTSDYSIXLDKKAQXAFIXYLIAGGPSSGAPPPS (D-Tyr1, Aib2, αMeL13, (2-[2-(2-Amino-ethoxy)-ethoxy]-acetyl)2-(γ-Glu)-CO-(CH2)18-CO2H on K17, Aib20, D-Glu24, C-terminal NH2) [Example 352] | – | 0.815 | 0.127 nM | 0.201 | 0.142 nM | –
[dY][Aib]EGTFTSDYSI[αMeL]LD[Dap]K([AEEA-AEEA-γGlu-C20 diacid])AQ[Aib]AFIEYLIAGGPSSGAPPPS-NH2 (N-terminus assumed; SMILES CC[C@H](C)[C@H](NC(=O)[C@H](CC(C)C)NC(=O)[C@H](Cc1ccc(O)cc1)NC(=O)[C@H](CCC(=O)O)NC(=O)[C@@H](NC(=O)[C@H](Cc1ccccc1)NC(=O)[C@H](C)NC(=O)C(C)(C)NC(=O)[C@H](CCC(N)=O)NC(=O)[C@H](C)NC(=O)[C@H](CCCCNC(=O)COCCOCCNC(=O)COCCOCCNC(=O)CC[C@H](NC(=O)CCCCCCCCCCCCCCCCCCC(=O)O)C(=O)O)NC(=O)[C@H](CN)NC(=O)[C@H](CC(=O)O)NC(=O)[C@H](CC(C)C)NC(=O)[C@](C)(CC(C)C)NC(=O)[C@@H](NC(=O)[C@H](CO)NC(=O)[C@H](Cc1ccc(O)cc1)NC(=O)[C@H](CC(=O)O)NC(=O)[C@H](CO)NC(=O)[C@@H](NC(=O)[C@H](Cc1ccccc1)NC(=O)[C@@H](NC(=O)CNC(=O)[C@H](CCC(=O)O)NC(=O)C(C)(C)NC(=O)[C@H](N)Cc1ccc(O)cc1)[C@@H](C)O)[C@@H](C)O)[C@@H](C)CC)[C@@H](C)CC)C(=O)N[C@@H](C)C(=O)NCC(=O)NCC(=O)N1CCC[C@H]1C(=O)N[C@@H](CO)C(=O)N[C@@H](CO)C(=O)NCC(=O)N[C@@H](C)C(=O)N1CCC[C@H]1C(=O)N1CCC[C@H]1C(=O)N1CCC[C@H]1C(=O)N[C@@H](CO)C(N)=O) [Example 348] | – | 0.373 | 0.193 nM | 0.224 | 0.113 nM | –
